Experimental data as given in the RNAGym collection of RNA variant scans (doi:10.1073/pnas.2313332121).

B1: TPR t1 (parent)
chain: GACCAAUCUGCCCUCAGAGCUCGAGAACAUCUUCGGAUGCAGAGGAGGCAGGCUUCGGUGGCGCGAUAGCGCCAACGUCCUCAACCUCCAAUGCAUCCCACCACAUGAUGAUGCCUGAAGAGCCUUGGUUUUUUG

Variants of: B1
Assay: polymerase ribozyme fitness, log enrichment relative to wild type (log ratio); higher = more active; in vitro selection for triplet polymerase activity
Outline: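 The heterodimeric triplet polymerase ribozyme's subunits were each mutagenized into PCR-built libraries and transcribed. Every library was selected once, in triplicate, by annealing with a biotinylated primer, the partner subunit and triplets, incubating frozen at −7 °C, gel-excising extended constructs, capturing on streptavidin beads and running RT-PCR. Input and output libraries were Illumina-sequenced, with genotypes kept only at ≥10 input reads and ≥1 read per output. Fitness, from inverse-variance-weighted replicate averages, is the base-2 logarithm of genotype enrichment over wild-type enrichment.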

| Variant | polymerase ribozyme fitness (log ratio) |
| --- | --- |
| GACCAAUCUGCCCUCAGAGCUCGAGAACAUCUUCGGAUGCAGAGGAGGCAGUCUUCGGUGGCGCGAUAACGCCAACGUCCUCAACCUCCAAUGAAUCCCACCAUAUGAUGAUGCCUGGAGAGCCUUGGUUUUUUG | -5.65 |
| GACCAAUCUGCCCUCAGAGCUCGAGAACAUCUUCGGAUGCAGAGGAGGCAGUCUUCGGUGGCGCGAUAGCGCCAACGUCCUCAACCUCCAAUGCAUCCUACCACAUGAUGAUGCCUGAAGAGCCUUGGUUUCUUG | -4.08 |
| GACCAAUCUGCCCUCAGAGCUCGAGAACAUCUUCGGAUGCAGAGGAGGCAGUCUUCGGUGGUGCGAUAGCGCCAACGUCCUAAACCUCCAAUGCAUCCCACUACAUGAUGAUGCCUGAAGAGGCUUGGUUUUUUG | -2.65 |
| GACCAAUCUGCCCUCAGAGCUCGAGAACAUCUUCGGAUGCAGAGGAGGCAGUCUUCGGUGGCGCGAUAGCGCGAACGUCCUCAACCUCCAAUGCAUCCCACCACAUGAUGAAGCCUGAAAAGCAUAGGUUUUUUG | -0.0832 |
| GACCAAUCUGCCCUCAGAGCUCGAGAACAUCUUCGGAUGCAGAGGAGGCAGUCUUCGGUGGCGCGAUAGCGGCAACGUCCUCAACCUCCAAUGCAUCCCACCACAUGAUGAUGCCUGAAGAGCCUUGGUUUUUUG | 0.452 |
| GACCAAUCUGCCCUCAGAGCUCGAGAACAUCUUCGGAUGCAGAGGAGGCAGUCUUCGGGGGCGCGAUAGCGCCAACGUCCUCAACCUACAAUGCAUCCCAUCACAUGAUGAUGCCUGAAGAGCCUUGGUUUUUUG | -1.76 |
| GACCAAUCUGCCCUCAGAGCUCGAGAACAUCUUCGGAUGCAGAGGAGGCAGUCUUCGGUGGCGCGAUAGCGCCAACGUCCUCAACCUCCAAUGCAUCCCACCACAUGAUGAUGCCUGAAGAGCCUUGGUUUAUUG | -0.57 |
| GACCAAUCUGCCCUCAGAGCUCGAGAACAUCUUCGGAUGCAGAGGAGGCAGUCUUCGGUGGCGCGAUAGCGCCAACGUCCUCAACCUCCAAUACAUCCCACCACAUGAUGAUGGCUGAAGAGCCUUGGUUUUUUG | -4.8 |
| GACCAAUCUGCCCUCAGAGCUCGAGAACAUCUUCGGAUGCAGAGGAGGCAGUCUUCGGUGGCGCGAUAGCGCGAACGUCCUCAACCUCCAACGCAUCCCACCAUAUGAUGAUGCCCGAAGAGCCUUGGAUUUUUG | -4.98 |
| GACCAAUCUGCCCUCAGAGCUCGAGAACAUCUUCGGAUGCAGAGGAGGCAGUCUUCGGUGGCGCGAUACCGCAAACGUCCUCAACCUCCAAUGCAUCCCACCACAUGAUGAUGCCUGAAGAGCCUUGGUUUUUUG | -2.55 |
| GACCAAUCUGCCCUCAGAGCUCGAGAACAUCUUCGGAUGCAGAGGAGGCAGUCUACGGUGGCGCGAUAGCGCCAACGUCCUCGACCUCCAAUGCAUCCCACCACAAGAUGAUGCUUGAAGAGCCUUGGUUUUUUG | -5.1 |
| GACCAAUCUGCCCUCAGAGCUCGAGAACAUCUUCGGAUGCAGAGGAGGCAGUCUUCGGUGGCGCGAUAGCGCUAACGUCCUCAACCUCCAAUGCAGCCCACCACAUGAUGAUGCCUGAAGGGCCUUGGUUUUUUG | 1.57 |
| GACCAAUCUGCCCUCAGAGCUCGAGAACAUCUUCGGAUGCAGAGGAGGCAGUCUUCGGUGGCGCGAUAGCGUCAACGUCUUCAACCUCCAAUGCAUCUCACCACAUGAUGAUGCCUGAAGAGCCUUGGUUUUUUG | -3.28 |
| GACCAAUCUGCCCUCAGAGCUCGAGAACAUCUUCGGAUGCAGAGGAGGCAGUCUUCGGUGGCGCGAUAGCGCCAACGUCCUCAACCUCCAAUGCAUCCCACCACGUGAUGAUGCCUGAAGAGCCUUGGUUUUUUG | -3.17 |
| GACCAAUCUGCCCUCAGAGCUCGAGAACAUCUUCGGAUGCAGAGGAGGCAGUCUUCGGUGGCGCGAUAGCGCCAACGUCCUCAACCUCCAAUGCAUCCCACCACAUGAUGAUGCCUGAAAAGCCUUGGUUUUUUG | -0.091 |
| GACCAAUCUGCCCUCAGAGCUCGAGAACAUCUUCGGAUGCAGAGGAGGCAGUCUUCGGUGGCGCGAUAGCGCCAACGUCCUCAACCUCCAAUGCAUCCCACCACAUGAUGAUGCCUGAACAGCCUUGGUUUUUUG | -0.122 |
| GACCAAUCUGCCCUCAGAGCUCGAGAACAUCUUCGGAUGCAGAGGAGGCAGGAUUCGGUGGCGCGAUAGCGCCUACGUCCUCAACCUCUAAUGCAUCCCACCACAUGAUGAUGCCUGAAGAGCCUUGGUUUUUUG | -0.387 |
| GACCAAUCUGCCCUCAGAGCUCGAGAACAUCUUCGGAUGCAGAGGAGGCAGUCUUCGGUGGCGCGAUAGCGUCAACGCCCUCAACCUCCAAUGCAUCCCACCACAUGAUGAUGCCUGAAGCGCCUUGGUUUUUUG | 1.26 |
| GACCAAUCUGCCCUCAGAGCUCGAGAACAUCUUCGGAUGCAGAGGAGGCAGGAUUCGGUGGCGCGAUAGCGCCUACGUCCUCAACCUCCAAUGCAUCCCACCACAUGAUGAUGCCUGAAGAGCCAUGGUUUUUUG | -1.05 |
| GACCAAUCUGCCCUCAGAGCUCGAGAACAUCUUCGGAUGCAGAGGAGGCAGUCUUCGGUGGCGCGAUAGCGCCAACGUCCUAUACCUCCAAUGCAUCCCACCACAUGAUGAUGCCUGAAGAGCCUUCGUUUUUUG | -2.33 |
| GACCAAUCUGCCCUCAGAGCUCGAGAACAUCUUCGGAUGCAGAGGAGGCAGUCUUAGGUGGCGCGUUAGCGCCAACGUCCUCAACCUCCAAUGCAUCCCACAACAUGAUGAUGCCUGAAGAGCCUUGGUUUUUUG | -6.29 |

| Variant | polymerase ribozyme fitness (log ratio) |
| --- | --- |
| GACCAAUCUGCCCUCAGAGCUCGAGAACAUCUUCGGAUGCAGAGGAGGCAGUCUUCGGUGGCGCGAUAGCGCCAACGUCCUCAACCUCCAAUGCAUCCCACCACAUGAUGAUGCCUGAAGAGCCUUGGUCUUUUG | -0.807 |
| GACCAAUCUGCCCUCAGAGCUCGAGAACAUCUUCGGAUGCAGAGGAGGCAGUCUUCGGUGGCGCGAUAGCGCCAACGUCCUCAACCUCCAAUGCAUCUCACCACAUGAUGAUGCCUGAAGAGCCUUGGUUUUUUG | -2.89 |
| GACCAAUCUGCCCUCAGAGCUCGAGAACAUCUUCGGAUGCAGAGGAGGCAGUCUUUGGUGGUGCGAUAGCGCCAACGUCCUCAACCUCCAAUGCAUCCCACCACAUGAUGAUGCCUGAAGAGCCUUGGUAUUUUG | -1.37 |
| GACCAAUCUGCCCUCAGAGCUCGAGAACAUCUUCGGAUGCAGAGGAGGCAGUCUUCGGUGGCGCGAUAGCGCGAACGUCCUCAACCUCCAAUGCAUCCCACCACAUGAUGAUGCCUGAAGAGCCUUGGUUUUUUG | -1.11 |
| GACCAAUCUGCCCUCAGAGCUCGAGAACAUCUUCGGAUGCAGAGGAGGCAGUCUUCGCUGGCGCGAUAGCGCCAACGUCCUCAACCUCCAAUGCAUCCCACCACAUGAUGAUGCCUGAAGAGCCUUGGUUUUUUG | -0.674 |
| GACCAAUCUGCCCUCAGAGCUCGAGAACAUCUUCGGAUGCAGAGGAGGCAGUCUUCGGUGGCGCGAUAGCGCCAACGUCCUCAACCUCCAAUGCAUCCCACCACAGGAUGAUGCCUGAAGAGCCUUGGUUUUUUG | -3.09 |
| GACCAAUCUGCCCUCAGAGCUCGAGAACAUCUUCGGAUGCAGAGGAGGCAGUCUUCGGUGGCGCGAUAGCGCCAACGUCCUCAACCUCCAAUGCGUCCCACCACAUGAUGAUGCCUGAAGAGCCUUGGUUUUUUG | -0.694 |
| GACCAAUCUGCCCUCAGAGCUCGAGAACAUCUUCGGAUGCAGAGGAGGCAGUCUUCGGUGGCGCGAUAGCGCCAACGUCCUCAACCUCCAAUGCAUCCCACCACAUGAUGAUGCCUGAAGCGCCUUGGUUUUUUG | 1.02 |
| GACCAAUCUGCCCUCAGAGCUCGAGAACAUCUUCGGAUGCAGAGGAGGCAGUCUUCGGUGGCGCGAUAGUGCCAACGACCUCAACCUCCAAUGCAUCCCAGCACAUGAUGAUGCCUGAAGAGCCUUGAUUUUUUG | -3.89 |
| GACCAAUCUGCCCUCAGAGCUCGAGAACAUCUUCGGAUGCAGAGGAGGCAGUCUUCGGUGUCGCGAUAGCGCCAACGUCCCCAACCUCCAAUGCAUCCCACCACAUGAUGAUGCUUGAAGAGCCUUGGUUUUUUG | -4.28 |
| GACCAAUCUGCCCUCAGAGCUCGAGAACAUCUUCGGAUGCAGAGGAGGCAGUCUUCGGUGACGCGAUAGCGCCAACGUCCUCAACCUCCAAUGCAUCCCACUACAUGAUGAUGCCUGAAGAGCCUCGGUUUUUUG | -3.23 |
| GACCAAUCUGCCCUCAGAGCUCGAGAACAUCUUCGGAUGCAGAGGAGGCAGGAUUCGGUGGCGCGAUAGCGCCAACGUCCUCAUCCUCCAAUGCAUCCCACCACAUGAUGAUGCCUUAAGAGGCUUGGUUUUUUG | -0.712 |
| GACCAAUCUGCCCUCAGAGCUCGAGAACAUCUUCGGAUGCAGAGGAGGCAGGAUUAGGUGGCGCGAUAGCGCCAACCUCCUCAACCUCGAAUGCAUCCCACCACAUGAUGAUGCCUGAAGAGCCUUGGUUUUUUG | -0.889 |
| GACCAAUCUGCCCUCAGAGCUCGAGAACAUCUUCGGAUGCAGAGGAGGCAGUCUUCGGUGGCGCGAUAGCGCCAACGUCCUCAACCUUCAAUGCAUCACACCACAUGAUGAUGCCUGAAUAGCCUUGGUUUUUUG | -5.88 |
| GACCAAUCUGCCCUCAGAGCUCGAGAACAUCUUCGGAUGCAGAGGAGGCAGUCUUCGGUGGCGCGAUAGCGCCAACCUCCUCAACCUCCAAUGCAUCCCACCACAUGAUGAUGCCUGAAGAGCCUUGGUUUUUUG | -0.813 |
| GACCAAUCUGCCCUCAGAGCUCGAGAACAUCUUCGGAUGCAGAGGAGGCAGUCUUCGGUGGCGCGAUAGCGCCAAAGUCCUCAACCUCCAAUGCAUCCCACCACUUGAUGAUGCCUGAAGAGCCUUGGUUUUUUG | -3.02 |
| GACCAAUCUGCCCUCAGAGCUCGAGAACAUCUUCGGAUGCAGAGGAGGCAGUCUUCGGUGGCGUGAUAGCGCCAACGUCCUGAACCUCCAAUGCAUCCCACCACAUGAUGAUGCCUGAAGAGCCUUGGUUUUUUG | -2.19 |
| GACCAAUCUGCCCUCAGAGCUCGAGAACAUCUUCGGAUGCAGAGGAGGCAGUCUUCGGUGGCGCGAUAGCGCUAACGUCCUCAACCUCCAAUGCAUCCCACCACAUGAUGAUGCCUGAAGAGCCUUGGCUUUUUG | -1.39 |
| GACCAAUCUGCCCUCAGAGCUCGAGAACAUCUUCGGAUGCAGAGGAGGCAGUCUUCGGUGGCGCGAUAGCGCCAACGUCCUCAACCUCCAAUUCAUCCCACCACAUGAUUAUGCCUGAAGAGCCUUGGUUUUUUG | -3.97 |
| GACCAAUCUGCCCUCAGAGCUCGAGAACAUCUUCGGAUGCAGAGGAGGCAGUCUUCGGUGGCGCGAUAGCGCCAACGUCCUCAACCUCCAAUGCAUCCCACCACAUGAUGAUGCCUGAAGAGACUUGGUUUUUUG | -0.303 |
| GACCAAUCUGCCCUCAGAGCUCGAGAACAUCUUCGGAUGCAGAGGAGGCAGUCUUCGGUAGCGCGAUAACGCCAACGUCCUAAACCUCCAAUGCAUCCCACUACAUGAUGAUGCCUGAAGAGGCUUGGUUUUUUG | -6.73 |
